Test results from the supplement of paper PMC10065799, “High-throughput profiling of sequence recognition by tyrosine kinases and SH2 domains using bacterial peptide display” (eLife, 2023).

Key:
SHP2-C SH2 = assay: SH2 binding enrichment of the phosphorylated peptide, bacterial display (enrichment ratio); higher = better substrate or ligand; peptides without Tyr show the background
c-Src SH2 = assay: as above
Grb2 SH2 = Grb2 SH2 (UniProt P62993); assay: as above
Fyn = Fyn (UniProt P06241); assay: phosphorylation enrichment, bacterial display (enrichment ratio); higher = better substrate or ligand; peptides without Tyr show the background
Chain of Fyn (P06241 whole entry, looked up): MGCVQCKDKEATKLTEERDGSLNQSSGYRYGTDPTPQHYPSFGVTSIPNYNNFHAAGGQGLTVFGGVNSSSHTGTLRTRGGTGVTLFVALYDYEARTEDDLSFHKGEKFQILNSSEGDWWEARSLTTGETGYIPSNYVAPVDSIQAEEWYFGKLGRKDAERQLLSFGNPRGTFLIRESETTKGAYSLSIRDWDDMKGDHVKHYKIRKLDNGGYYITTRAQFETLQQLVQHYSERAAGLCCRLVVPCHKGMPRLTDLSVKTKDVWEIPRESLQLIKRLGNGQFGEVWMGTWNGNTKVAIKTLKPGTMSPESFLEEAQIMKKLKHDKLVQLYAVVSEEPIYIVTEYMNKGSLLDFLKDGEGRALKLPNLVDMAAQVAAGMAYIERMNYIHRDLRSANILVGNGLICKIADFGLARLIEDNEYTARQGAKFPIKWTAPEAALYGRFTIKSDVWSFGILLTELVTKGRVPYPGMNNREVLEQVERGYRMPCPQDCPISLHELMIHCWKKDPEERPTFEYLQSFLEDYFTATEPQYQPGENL

c-Abl (mouse) = assay: as above
FGFR1 = FGFR1 (UniProt P11362); assay: as above
Chain of FGFR1 (P11362 whole entry, looked up): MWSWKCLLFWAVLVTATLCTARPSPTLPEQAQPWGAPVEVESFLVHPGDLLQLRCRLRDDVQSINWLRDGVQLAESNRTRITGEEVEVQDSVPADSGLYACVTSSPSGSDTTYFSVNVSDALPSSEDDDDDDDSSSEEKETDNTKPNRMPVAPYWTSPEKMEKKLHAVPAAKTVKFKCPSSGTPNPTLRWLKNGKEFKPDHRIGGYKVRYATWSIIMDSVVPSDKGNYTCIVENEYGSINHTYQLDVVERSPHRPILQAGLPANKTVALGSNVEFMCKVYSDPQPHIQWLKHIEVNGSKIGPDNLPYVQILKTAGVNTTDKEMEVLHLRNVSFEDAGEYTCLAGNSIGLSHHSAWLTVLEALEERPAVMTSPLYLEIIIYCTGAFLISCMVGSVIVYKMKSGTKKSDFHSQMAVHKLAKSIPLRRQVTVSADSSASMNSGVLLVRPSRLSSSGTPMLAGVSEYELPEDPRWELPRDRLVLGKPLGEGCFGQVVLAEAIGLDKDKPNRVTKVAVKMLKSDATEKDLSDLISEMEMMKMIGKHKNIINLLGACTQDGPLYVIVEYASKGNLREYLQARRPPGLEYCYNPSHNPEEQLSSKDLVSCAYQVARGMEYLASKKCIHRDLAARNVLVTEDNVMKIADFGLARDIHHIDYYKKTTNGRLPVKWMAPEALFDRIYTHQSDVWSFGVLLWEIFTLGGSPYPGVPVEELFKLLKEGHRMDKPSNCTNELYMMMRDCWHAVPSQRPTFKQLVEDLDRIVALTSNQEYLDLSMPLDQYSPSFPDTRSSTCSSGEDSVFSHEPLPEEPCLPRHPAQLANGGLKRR

EPHB2 = EPHB2 (UniProt P29323); assay: as above
Hck = Hck (UniProt P08631); assay: as above
Chain of Hck (P08631 whole entry, looked up): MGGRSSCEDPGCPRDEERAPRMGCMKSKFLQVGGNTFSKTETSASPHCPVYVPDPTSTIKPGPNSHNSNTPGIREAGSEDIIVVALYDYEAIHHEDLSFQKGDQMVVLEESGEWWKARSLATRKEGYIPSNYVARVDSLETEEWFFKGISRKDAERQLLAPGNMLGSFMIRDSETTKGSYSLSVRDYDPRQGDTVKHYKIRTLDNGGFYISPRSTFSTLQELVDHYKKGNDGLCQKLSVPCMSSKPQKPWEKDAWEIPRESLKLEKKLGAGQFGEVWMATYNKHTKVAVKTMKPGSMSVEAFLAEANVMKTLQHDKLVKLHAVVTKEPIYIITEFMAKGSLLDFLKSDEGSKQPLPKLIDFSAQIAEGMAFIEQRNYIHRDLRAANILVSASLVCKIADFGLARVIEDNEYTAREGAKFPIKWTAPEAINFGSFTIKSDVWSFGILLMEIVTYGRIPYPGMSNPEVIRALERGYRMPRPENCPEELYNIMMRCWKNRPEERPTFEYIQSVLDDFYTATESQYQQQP

Fes = Fes (UniProt P07332); assay: as above
AncSZ = assay: as above
EPHB1 = EPHB1 (UniProt P54762); assay: as above
Chain of EPHB1 (P54762 whole entry, looked up): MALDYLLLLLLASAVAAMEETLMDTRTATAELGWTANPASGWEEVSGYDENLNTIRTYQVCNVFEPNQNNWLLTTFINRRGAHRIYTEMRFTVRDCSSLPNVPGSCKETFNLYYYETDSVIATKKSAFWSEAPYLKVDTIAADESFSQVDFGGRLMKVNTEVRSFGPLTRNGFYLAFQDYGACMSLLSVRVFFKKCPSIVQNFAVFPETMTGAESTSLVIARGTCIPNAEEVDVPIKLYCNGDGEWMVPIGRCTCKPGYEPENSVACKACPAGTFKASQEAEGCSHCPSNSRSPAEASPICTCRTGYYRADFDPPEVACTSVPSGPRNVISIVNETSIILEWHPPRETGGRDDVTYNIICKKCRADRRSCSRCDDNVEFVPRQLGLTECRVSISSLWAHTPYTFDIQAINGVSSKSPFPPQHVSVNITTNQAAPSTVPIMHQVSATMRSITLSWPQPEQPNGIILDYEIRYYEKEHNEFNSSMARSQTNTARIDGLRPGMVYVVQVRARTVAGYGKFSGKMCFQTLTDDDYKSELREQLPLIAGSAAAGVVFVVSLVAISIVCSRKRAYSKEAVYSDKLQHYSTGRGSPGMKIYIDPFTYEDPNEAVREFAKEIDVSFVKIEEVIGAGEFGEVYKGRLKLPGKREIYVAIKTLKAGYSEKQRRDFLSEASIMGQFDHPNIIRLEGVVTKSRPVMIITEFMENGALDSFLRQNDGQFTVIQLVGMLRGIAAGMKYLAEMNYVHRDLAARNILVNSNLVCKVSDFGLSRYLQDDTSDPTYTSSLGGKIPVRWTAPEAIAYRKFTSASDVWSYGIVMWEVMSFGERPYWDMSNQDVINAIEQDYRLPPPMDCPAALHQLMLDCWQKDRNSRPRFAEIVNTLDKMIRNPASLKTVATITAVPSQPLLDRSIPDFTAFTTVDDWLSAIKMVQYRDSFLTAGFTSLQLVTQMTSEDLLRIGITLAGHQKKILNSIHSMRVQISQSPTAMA

FGFR3 = FGFR3 (UniProt P22607); assay: as above
Chain of FGFR3 (P22607 whole entry, looked up): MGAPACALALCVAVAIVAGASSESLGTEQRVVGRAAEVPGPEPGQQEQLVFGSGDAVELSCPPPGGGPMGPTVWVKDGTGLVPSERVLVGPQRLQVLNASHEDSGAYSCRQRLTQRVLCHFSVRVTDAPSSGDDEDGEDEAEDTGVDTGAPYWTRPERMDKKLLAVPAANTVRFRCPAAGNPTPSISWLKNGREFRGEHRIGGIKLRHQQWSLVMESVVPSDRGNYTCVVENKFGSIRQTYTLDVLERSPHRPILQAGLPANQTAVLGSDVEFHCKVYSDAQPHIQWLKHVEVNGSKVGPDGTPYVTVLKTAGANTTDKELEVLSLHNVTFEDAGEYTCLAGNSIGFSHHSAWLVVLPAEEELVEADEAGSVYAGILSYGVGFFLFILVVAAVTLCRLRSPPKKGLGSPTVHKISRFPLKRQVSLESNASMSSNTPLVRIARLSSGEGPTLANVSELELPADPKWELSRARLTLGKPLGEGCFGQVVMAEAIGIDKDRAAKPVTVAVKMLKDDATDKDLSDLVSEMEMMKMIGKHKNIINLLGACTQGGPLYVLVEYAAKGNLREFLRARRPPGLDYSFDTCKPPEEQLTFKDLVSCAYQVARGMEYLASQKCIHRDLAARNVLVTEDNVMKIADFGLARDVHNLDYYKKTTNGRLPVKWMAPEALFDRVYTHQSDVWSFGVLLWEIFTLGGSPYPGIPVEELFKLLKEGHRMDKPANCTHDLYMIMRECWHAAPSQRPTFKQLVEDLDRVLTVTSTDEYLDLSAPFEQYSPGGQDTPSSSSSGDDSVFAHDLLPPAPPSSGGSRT

c-Src = assay: as above
MERTK = MERTK (UniProt Q12866); assay: as above
Jak2 = Jak2 (UniProt O60674); assay: as above
Chain of Jak2 (O60674 whole entry, looked up): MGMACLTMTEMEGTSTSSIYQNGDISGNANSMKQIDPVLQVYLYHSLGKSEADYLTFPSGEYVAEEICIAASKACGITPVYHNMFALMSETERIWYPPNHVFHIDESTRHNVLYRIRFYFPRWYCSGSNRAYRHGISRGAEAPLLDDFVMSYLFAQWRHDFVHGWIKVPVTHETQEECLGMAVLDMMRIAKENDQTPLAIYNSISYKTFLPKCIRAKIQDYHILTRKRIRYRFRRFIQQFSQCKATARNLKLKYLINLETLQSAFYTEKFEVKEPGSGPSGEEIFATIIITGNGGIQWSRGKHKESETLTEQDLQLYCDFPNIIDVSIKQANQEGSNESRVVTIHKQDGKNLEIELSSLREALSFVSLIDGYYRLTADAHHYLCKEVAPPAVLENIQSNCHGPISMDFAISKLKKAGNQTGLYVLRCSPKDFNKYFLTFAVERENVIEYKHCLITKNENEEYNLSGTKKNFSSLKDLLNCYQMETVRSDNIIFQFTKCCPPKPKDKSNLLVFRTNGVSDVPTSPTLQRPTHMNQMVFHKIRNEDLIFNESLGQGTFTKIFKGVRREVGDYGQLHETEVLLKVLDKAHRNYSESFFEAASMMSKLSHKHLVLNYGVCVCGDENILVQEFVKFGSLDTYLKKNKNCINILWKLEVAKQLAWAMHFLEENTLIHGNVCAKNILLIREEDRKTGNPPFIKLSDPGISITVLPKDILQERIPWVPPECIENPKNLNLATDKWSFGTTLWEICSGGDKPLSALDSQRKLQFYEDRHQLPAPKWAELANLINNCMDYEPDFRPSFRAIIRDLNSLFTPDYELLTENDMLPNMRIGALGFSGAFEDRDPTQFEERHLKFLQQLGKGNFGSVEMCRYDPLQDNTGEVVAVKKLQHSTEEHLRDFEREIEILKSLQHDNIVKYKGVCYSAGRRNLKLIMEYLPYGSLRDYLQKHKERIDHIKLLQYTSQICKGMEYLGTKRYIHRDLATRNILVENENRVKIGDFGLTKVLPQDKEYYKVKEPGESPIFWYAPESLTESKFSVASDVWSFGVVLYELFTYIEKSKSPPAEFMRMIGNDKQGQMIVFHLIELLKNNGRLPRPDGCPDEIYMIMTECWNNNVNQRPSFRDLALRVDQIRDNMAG

Fer (mouse) = assay: as above
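Throughout, for SH2 binding enrichment of the phosphorylated peptide, bacterial display: peptide library displayed on the E. coli surface as eCPX fusions, selected cells deep-sequenced, score is each peptide's frequency after selection divided by its frequency in the input.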
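Throughout, for phosphorylation enrichment, bacterial display: 11-residue human phosphosite peptides and single-mutation variants displayed on the E. coli surface, counted by deep sequencing, each peptide's frequency after selection divided by its frequency in the unselected input library; frequency after pTyr selection over input frequency; kinase dosed for 20-30% of maximal phosphorylation in three min.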

Chain of Grb2 SH2 (P62993 whole entry, looked up): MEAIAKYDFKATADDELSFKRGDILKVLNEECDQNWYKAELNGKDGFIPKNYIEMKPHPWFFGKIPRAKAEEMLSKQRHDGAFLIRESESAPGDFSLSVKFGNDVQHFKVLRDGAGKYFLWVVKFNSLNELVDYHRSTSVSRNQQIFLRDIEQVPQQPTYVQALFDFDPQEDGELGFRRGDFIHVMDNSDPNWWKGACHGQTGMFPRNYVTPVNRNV

Row | Sequence | SH2 binding enrichment (SHP2-C SH2) | SH2 binding enrichment (c-Src SH2) | SH2 binding enrichment (Grb2 SH2) | phosphorylation enrichment (Fyn) | phosphorylation enrichment (c-Abl (mouse)) | phosphorylation enrichment (FGFR1) | phosphorylation enrichment (EPHB2) | phosphorylation enrichment (Hck) | phosphorylation enrichment (Fes) | phosphorylation enrichment (AncSZ) | phosphorylation enrichment (EPHB1) | phosphorylation enrichment (FGFR3) | phosphorylation enrichment (c-Src) | phosphorylation enrichment (MERTK) | phosphorylation enrichment (Jak2) | phosphorylation enrichment (Fer (mouse))
1 | FISLIYTNFEA [GSTP1_Y109_YF] | 0.872 | 0.524 | 1.1 | 4.29 | 2.21 | 0.683 | 0.793 | 2.56 | 1.55 | 1.56 | 1.11 | 1.12 | 4.67 | 3.6 | 1.3 | 2
2 | RRAKGYPIDLF [ITGB2_Y125_YF] | 0.687 | 0.427 | 0.573 | 0.563 | 0.771 | 1.06 | 0.605 | 0.57 | 0.993 | 4.21 | 0.566 | 0.677 | 1.25 | 0.878 | 1.64 | 1.08
3 | GAPATYEGDAR [CACNA1A_Y1013] | 0.669 | 0.649 | 0.893 | 0.388 | 0.397 | 0.543 | 0.499 | 0.467 | 0.666 | 0.58 | 0.354 | 0.51 | 0.368 | 0.345 | 0.497 | 0.565
4 | TEDPEYDVQSK [PTCHD3_Y335] | 0.871 | 0.557 | 0.913 | 0.616 | 0.679 | 0.689 | 0.661 | 0.669 | 1.01 | 1.18 | 0.521 | 0.738 | 0.435 | 0.358 | 0.936 | 0.564
5 | RASQEYHIVKK [PDZD2_Y557_S552R] | 1.03 | 1.11 | 1.01 | 0.289 | 0.841 | 0.881 | 0.471 | 0.607 | 1.08 | 0.772 | 0.754 | 0.784 | 0.643 | 0.356 | 1.06 | 0.571
6 | RGFDTYFGYLL [ARSB_Y165] | 1.42 | 0.417 | 1 | 8.58 | 1.56 | 3.58 | 8.25 | 7.09 | 1.63 | 2.15 | 5.14 | 3.3 | 6.46 | 4.01 | 5.83 | 3.59
7 | TTPGPHRSIYF [MPG_Y71_Y71H] | 0.484 | 0.503 | 0.71 | 0.359 | 0.538 | 0.579 | 0.444 | 0.411 | 0.577 | 0.569 | 0.355 | 0.526 | 0.458 | 0.479 | 0.357 | 0.396
8 | SVVVPYETPEV [TP53_Y220_P222T] | 0.694 | 1.83 | 0.827 | 0.541 | 0.849 | 0.569 | 0.862 | 0.56 | 1.41 | 1.42 | 0.715 | 0.774 | 0.505 | 0.556 | 1.14 | 0.639
9 | PFRSIYFSSPK [MPG_Y75_YF] | 0.565 | 0.447 | 0.843 | 0.658 | 0.398 | 0.599 | 0.571 | 1.11 | 0.666 | 0.851 | 0.382 | 0.809 | 0.669 | 0.463 | 0.553 | 0.595
10 | AGVDRYSLGTS [C5orf42_Y1451_P1446A] | 0.615 | 0.45 | 0.79 | 0.361 | 0.388 | 0.398 | 0.366 | 0.455 | 0.599 | 0.59 | 0.463 | 0.51 | 0.391 | 0.394 | 0.498 | 0.398
11 | FESPRYLQVHI [FANCA_Y488] | 0.781 | 0.648 | 0.912 | 0.408 | 0.949 | 0.534 | 0.461 | 0.564 | 1.04 | 0.928 | 0.782 | 0.61 | 0.411 | 0.495 | 0.867 | 0.676
12 | FDDDDYDTDFV [BLM_Y296] | 0.702 | 0.555 | 0.803 | 0.563 | 0.767 | 0.586 | 0.549 | 0.538 | 1.14 | 1.26 | 0.662 | 0.78 | 0.494 | 0.509 | 0.958 | 0.531
13 | QMWLKYSQSDL [SMC1A_Y714_R711W] | 0.878 | 0.455 | 1.02 | 0.485 | 1.11 | 0.701 | 0.562 | 0.546 | 1.8 | 1.67 | 0.637 | 1.08 | 0.668 | 0.505 | 1.27 | 0.512
14 | RGKDSYETSQL [SPP1_Y225] | 0.381 | 0.482 | 0.698 | 0.484 | 0.313 | 0.632 | 0.529 | 0.412 | 0.913 | 0.681 | 0.552 | 0.697 | 0.449 | 0.5 | 0.643 | 0.594
15 | HRGSLYLAIEF [TEK_Y899_Y897S_YF] | 0.683 | 0.536 | 0.956 | 0.538 | 1.19 | 0.589 | 0.491 | 0.48 | 1.55 | 1.23 | 0.641 | 0.902 | 0.489 | 0.538 | 1.28 | 0.748
16 | AKLDIYKRKVE [VWA3B_Y918_N916D] | 0.732 | 0.45 | 0.871 | 0.485 | 0.411 | 0.298 | 0.283 | 0.414 | 0.707 | 0.589 | 0.295 | 0.382 | 0.37 | 0.291 | 0.475 | 0.317
17 | SSFPDYLAAVD [GLB1_Y154_D151Y_YF] | 2.81 | 0.509 | 0.816 | 0.586 | 0.703 | 0.676 | 0.603 | 0.576 | 1.09 | 1.31 | 0.604 | 0.761 | 0.497 | 0.422 | 0.925 | 0.66

Row | Sequence | SH2 binding enrichment (SHP2-C SH2) | SH2 binding enrichment (c-Src SH2) | SH2 binding enrichment (Grb2 SH2) | phosphorylation enrichment (Fyn) | phosphorylation enrichment (c-Abl (mouse)) | phosphorylation enrichment (FGFR1) | phosphorylation enrichment (EPHB2) | phosphorylation enrichment (Hck) | phosphorylation enrichment (Fes) | phosphorylation enrichment (AncSZ) | phosphorylation enrichment (EPHB1) | phosphorylation enrichment (FGFR3) | phosphorylation enrichment (c-Src) | phosphorylation enrichment (MERTK) | phosphorylation enrichment (Jak2) | phosphorylation enrichment (Fer (mouse))
18 | EPDSLYGCGRG [ATM_Y2019_G2023R] | 0.886 | 0.559 | 0.93 | 2.05 | 0.885 | 0.399 | 0.45 | 4.04 | 0.926 | 0.933 | 0.534 | 0.576 | 2.52 | 0.419 | 0.858 | 0.574
19 | FTYDPYSEEDP [IL2RB_Y387] | 0.694 | 0.555 | 0.851 | 1.28 | 0.654 | 0.503 | 0.581 | 1.01 | 1.15 | 1.05 | 0.564 | 0.822 | 1.46 | 0.389 | 0.957 | 0.475
20 | HPFNSYTFPRL [PAK5_Y316_S312P_YF] | 1.35 | 1 | 0.642 | 1.19 | 1.05 | 0.531 | 0.64 | 0.474 | 0.957 | 1.3 | 0.683 | 0.786 | 0.602 | 1.41 | 0.995 | 0.461
21 | WEQELYSQLVY [WAS_Y102] | 0.589 | 0.811 | 0.98 | 9.39 | 1.55 | 8.38 | 16 | 8.84 | 2.69 | 2.3 | 11.8 | 7.23 | 7.33 | 9.2 | 1.35 | 15.7
22 | FQKNSYSEELR [LMNA_Y211_I210S] | 0.643 | 0.413 | 0.847 | 0.456 | 0.544 | 0.401 | 0.342 | 0.319 | 0.686 | 0.626 | 0.363 | 0.499 | 0.452 | 0.425 | 0.63 | 0.365
23 | SNNFIYTTLGV [FAM83B_Y639_K640T_YF] | 0.927 | 0.72 | 0.936 | 7.76 | 1.56 | 1.22 | 1.39 | 7.53 | 0.885 | 0.899 | 2.23 | 1.16 | 5.65 | 6.9 | 0.666 | 2.67
24 | LITTLYISFLG [KCNQ1_Y267_G269S] | 0.621 | 0.838 | 0.872 | 0.913 | 1.64 | 0.71 | 0.784 | 1.15 | 1.98 | 1.47 | 0.852 | 1.06 | 1.56 | 0.902 | 2.27 | 0.757
25 | ANVIRYFPTQA [SLC25A4_Y81] | 0.673 | 0.64 | 1.09 | 0.585 | 0.541 | 0.524 | 0.502 | 0.558 | 0.648 | 0.78 | 0.42 | 0.492 | 0.674 | 0.546 | 0.61 | 0.547
26 | SYMVRYNQPRV [GRIN2D_Y736] | 1.25 | 1.11 | 0.871 | 0.38 | 0.694 | 0.561 | 0.51 | 0.385 | 0.734 | 0.721 | 0.46 | 0.523 | 0.432 | 0.45 | 0.651 | 0.419
27 | KILGRYYETGS [PAX2_Y72] | 0.6 | 1.21 | 0.951 | 0.437 | 0.636 | 0.507 | 0.586 | 0.486 | 0.758 | 0.641 | 0.5 | 0.523 | 0.504 | 0.548 | 0.952 | 0.418
28 | TVLEPYTDPFF [ZC3H18_Y367_A368T_YF] | 0.649 | 1.98 | 0.791 | 0.535 | 0.685 | 1.29 | 0.429 | 0.501 | 1.09 | 1.25 | 0.463 | 0.909 | 0.514 | 0.519 | 1.09 | 0.438
29 | HFPFQCHRQLF [F12_Y53_Y53C_YF] | 1.01 | 0.951 | 1.23 | 0.535 | 1.09 | 0.745 | 0.758 | 1.07 | 1.64 | 1.76 | 0.875 | 1.4 | 0.692 | 0.885 | 1.1 | 0.587
30 | HLTLVYGGIFL [FBP1_Y259_R255L] | 0.883 | 0.544 | 0.808 | 2.72 | 1.4 | 0.745 | 0.849 | 2.09 | 1.81 | 1.61 | 0.743 | 1.15 | 2.71 | 0.507 | 1.96 | 0.699
31 | CTLLPYYSAPV [DGKE_Y269_R273P] | 0.54 | 1.53 | 0.71 | 0.792 | 1.65 | 1.43 | 2.29 | 1.14 | 1.71 | 2.02 | 2.04 | 1.3 | 1.25 | 4.17 | 1.54 | 2.17
32 | LEIETYPRLLD [KRT12_Y429_R430P] | 0.65 | 0.498 | 0.826 | 0.599 | 1.1 | 0.787 | 0.953 | 0.41 | 1.87 | 1.3 | 0.802 | 1.06 | 0.772 | 0.461 | 1.85 | 0.646
33 | RNVLVYDKLNV [ROR2_Y624] | 0.535 | 0.908 | 1.06 | 5.08 | 2.12 | 0.614 | 1.97 | 13.9 | 0.64 | 0.933 | 1.97 | 0.787 | 3.99 | 3.88 | 0.632 | 3.9
